Measured values taken from PMC125294 (Arthritis Research, 2002).
Ends that are not written are not given here.

T1: Lewis rat MHC class II molecule, RT1.B^L (rat (Lewis), UniProt P20037 24-256; P29826 28-263)
T1 sequence (looked up) 1: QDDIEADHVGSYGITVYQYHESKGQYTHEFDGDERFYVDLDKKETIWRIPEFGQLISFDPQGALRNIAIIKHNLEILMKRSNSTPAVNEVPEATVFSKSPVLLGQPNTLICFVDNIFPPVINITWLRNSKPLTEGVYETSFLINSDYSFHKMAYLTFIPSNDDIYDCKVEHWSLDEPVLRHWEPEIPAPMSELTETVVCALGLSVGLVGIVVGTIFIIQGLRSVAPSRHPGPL
T1 sequence (looked up) 2: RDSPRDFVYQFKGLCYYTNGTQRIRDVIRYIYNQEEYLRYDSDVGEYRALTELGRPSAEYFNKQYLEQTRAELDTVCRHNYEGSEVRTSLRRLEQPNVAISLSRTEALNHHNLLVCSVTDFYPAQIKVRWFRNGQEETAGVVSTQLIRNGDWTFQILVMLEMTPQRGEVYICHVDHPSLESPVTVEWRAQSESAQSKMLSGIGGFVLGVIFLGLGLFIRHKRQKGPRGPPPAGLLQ


What was measured:
[1] = test system: polyclonal lymph node cell population; conditions: ref [9] (also Fig. 3); cited from earlier work
[2] = test system: MMP peptide-specific T cells; experiment: Delayed-type hypersensitivity; conditions: control ovalbumin peptide
[3] = target: T1, Lewis rat MHC class II molecule, RT1.B^L; experiment: competitive MHC class II-peptide binding assay

Row | Molecule | IC50 [3] [µM] | further results
1 | SNTFGLQLE [hsp65_178–186] |  | proliferative response to mycobacterial hsp65 178–186 [1]: very low
2 | ISQAVHAAHAEINEAGR [OVA323–339] |  | DTH reaction (in words), control peptide [2]: no DTH reaction was observed

The next lines start with results.

Row | IC50 [3] [µM] | Molecule | further results
3 | ≤ 8 | FLYFFSGSSQLEFDP-NH2 [Rat MMP-3_(444-458) peptide] | 
4 | 64 to 128 | VKEGHSPPDDVDIVI-NH2 [Human MMP-16_(539-553) peptide] | 
5 | 128 to 256 | SAFWPSLPSGLDAAY-NH2 [Rat MMP-10_(329-343) peptide] | 
